# Data published in US20130089497A1 (Genentech, published 2013).
# B1: murine monoclonal antibody anti-FcRH5-13G9 (antibody, V domains shown)
# VH: EVQLVQSGPELKKPGETVKISCKASGYTFTNYGMNWVKQAPGKGLKWMGWVNTYTGEPTYTDDFKGRFAFSVETSASTVFLQINNLKNEDTATYFCARRSIPYYYAMDYWGQGTSLT
# VL: DIVMTQSQKIMSTSVGDRVNVTCKASQNVGSNVAWYHQKPGQSPKALIYSASYRYSGVPDRFTGSGSGTDFTLTISNVQSEDLAEYFCQQYKTWTFGGGTKLEIKR
# notes: Whole murine IgG from hybridoma; also called 13G9.1.1; mu13G9
# Assays:
# [1] = molecular target: T1, gD tagged human FcRH3 on SVT2 cells (human, UniProt Q96P31 18-734); test: FACS, SVT2.MSCV.gD.FcRH3 cells, PE secondary antibody
# T1 construct: whole, on cells; also called huFcRH3; not shown: gD tag; the construct for this FcRH is not described
# T1 sequence (looked up): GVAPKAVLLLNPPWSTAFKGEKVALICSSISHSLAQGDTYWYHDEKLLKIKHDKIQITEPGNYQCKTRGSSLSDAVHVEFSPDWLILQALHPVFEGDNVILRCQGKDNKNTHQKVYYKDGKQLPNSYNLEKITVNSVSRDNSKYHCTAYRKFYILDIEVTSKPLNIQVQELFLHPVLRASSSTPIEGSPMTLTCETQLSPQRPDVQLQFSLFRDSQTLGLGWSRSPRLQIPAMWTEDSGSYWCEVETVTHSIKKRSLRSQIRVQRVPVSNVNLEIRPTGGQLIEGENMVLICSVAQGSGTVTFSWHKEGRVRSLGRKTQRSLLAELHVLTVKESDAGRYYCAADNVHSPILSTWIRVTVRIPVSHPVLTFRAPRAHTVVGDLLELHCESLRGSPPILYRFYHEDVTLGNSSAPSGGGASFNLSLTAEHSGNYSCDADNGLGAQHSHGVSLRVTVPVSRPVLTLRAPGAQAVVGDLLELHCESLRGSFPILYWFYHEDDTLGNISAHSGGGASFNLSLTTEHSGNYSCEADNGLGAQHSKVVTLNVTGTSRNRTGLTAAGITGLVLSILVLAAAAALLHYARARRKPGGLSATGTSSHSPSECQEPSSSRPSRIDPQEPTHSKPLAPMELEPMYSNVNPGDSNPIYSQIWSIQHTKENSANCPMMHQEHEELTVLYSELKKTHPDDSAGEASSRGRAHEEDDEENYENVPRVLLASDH
# [2] = molecular target: T2, gD tagged human FcRH4 on SVT2 cells (human, UniProt Q96PJ5 20-515); test: FACS, SVT2.MSCV.gD.FcRH4 cells, PE secondary antibody
# T2 construct: whole, on cells; also called huFcRH4; IRTA1; not shown: gD tag; the construct for this FcRH is not described
# T2 sequence (looked up): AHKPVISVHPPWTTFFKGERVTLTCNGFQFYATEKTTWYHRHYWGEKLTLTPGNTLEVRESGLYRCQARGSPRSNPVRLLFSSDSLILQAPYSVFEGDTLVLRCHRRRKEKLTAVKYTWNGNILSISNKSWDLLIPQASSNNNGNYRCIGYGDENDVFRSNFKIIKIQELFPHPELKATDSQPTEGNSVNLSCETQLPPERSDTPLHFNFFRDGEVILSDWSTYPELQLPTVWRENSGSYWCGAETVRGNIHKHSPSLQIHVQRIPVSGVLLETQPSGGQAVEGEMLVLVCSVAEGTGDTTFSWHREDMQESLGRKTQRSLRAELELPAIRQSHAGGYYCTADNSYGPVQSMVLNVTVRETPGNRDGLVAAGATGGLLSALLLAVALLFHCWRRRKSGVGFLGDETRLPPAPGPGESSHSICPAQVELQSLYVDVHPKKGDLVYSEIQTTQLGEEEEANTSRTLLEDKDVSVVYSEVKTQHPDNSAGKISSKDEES
# [3] = molecular target: T3, human FcRH5 (FcRH5c/IRTA2c, PRO52387), soluble recombinant protein (human, UniProt Q96RD9 16-851); test: SPR (Biacore 2000): IgG captured on anti-murine IgG chip, FcRH injected, 25 C, 1:1 Langmuir model
# T3 construct: also called Hu antigen; FcRH5 protein
# T3 chain: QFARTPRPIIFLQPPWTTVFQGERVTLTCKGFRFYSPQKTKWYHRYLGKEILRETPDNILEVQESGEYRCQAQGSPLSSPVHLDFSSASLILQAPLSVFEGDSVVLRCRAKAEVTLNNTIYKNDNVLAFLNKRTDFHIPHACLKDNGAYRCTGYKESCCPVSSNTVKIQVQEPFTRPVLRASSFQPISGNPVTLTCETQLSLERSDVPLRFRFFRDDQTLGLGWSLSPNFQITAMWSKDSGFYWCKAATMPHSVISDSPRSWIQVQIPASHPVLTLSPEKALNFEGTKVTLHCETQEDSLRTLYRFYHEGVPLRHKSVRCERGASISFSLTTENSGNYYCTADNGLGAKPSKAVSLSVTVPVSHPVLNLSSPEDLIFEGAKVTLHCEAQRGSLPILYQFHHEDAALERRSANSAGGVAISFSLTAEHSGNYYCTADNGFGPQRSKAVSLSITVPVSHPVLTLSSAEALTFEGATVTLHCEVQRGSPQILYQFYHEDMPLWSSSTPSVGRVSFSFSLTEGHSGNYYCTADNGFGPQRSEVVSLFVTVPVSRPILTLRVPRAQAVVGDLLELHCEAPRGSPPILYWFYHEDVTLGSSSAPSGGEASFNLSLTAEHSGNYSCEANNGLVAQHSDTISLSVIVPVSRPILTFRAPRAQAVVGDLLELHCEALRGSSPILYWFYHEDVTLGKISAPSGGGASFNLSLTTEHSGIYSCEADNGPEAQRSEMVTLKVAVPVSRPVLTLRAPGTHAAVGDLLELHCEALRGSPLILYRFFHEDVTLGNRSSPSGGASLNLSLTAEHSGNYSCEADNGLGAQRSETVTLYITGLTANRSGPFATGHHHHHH
binder,measurement,setting,value
B1,binding result,[1],no binding (tested: 1.0 ug per about 10^6 cells (p-1120))
same,binding result,[2],no binding (tested: 1.0 ug per about 10^6 cells (p-1120))
same,Kd,[3],19 nM
